{"source": "the DeepSol protein solubility set"}
{"assay": "soluble on expression in E. coli; label from the status in PepcDB or PDB records"}
{"sequence": "MGSDKIHHHHHHMPSERASSFDIMLWVLSGCSELLYGTQALPLTGKVDRIFGPAREPRDVRVLNYLELADRLDRSGIGTAVDHQRAALSETDIEVETTPWQEGHPAWALGGNIAFNDPMFREFDIAHCNMIGPGSVAVARYAAQADIPLVLHAHVTREDFRDSFRGSNLIAPVLGRYLRWFYSQADLVLCPSEYTKGILESYPVDAPIRPMTNGVDIDALAGHEDMREDYRRRYDLDGMVVFAVGNVFERKGLTTFCELAQETEHDFAWFGPYDAGPQASKTVSRWVNNPPENVTFTGWVEDIRGAFGAGDVYLFPTKAENQGIAVLEAMACGKAVVLSDIPVFREYYEDGHDCLICADEAEFREALERLAENPDLRERLGENARETAREHSLDRVSRRLVETYEELA", "soluble on expression in E. coli": "not soluble"}
{"sequence": "MKPRIYVKVKPERLGAVIGPRGEVKAEIMRRTGTVITVDTENSMVIVEPEAEGIPPVNLMKAAEVVKAISLGFPPEKAFRLLEEDQILVVVDLKQVVGDSQNHLKRIKGRIIGEGGRARRTIEEMTDTYINVGEYEVAIIGDYERAMAAKQAIEMLAEGRMHSTVYRHLERIMREIKRRERLKMWAREEL", "soluble on expression in E. coli": "soluble"}
{"sequence": "MGSDKIHHHHHHMKTITTWQNNIQIVKDATNIVEISKGFSPDKKYIVTTIDEEKYLLRIGDIQEYERRKIEFQILNEMVKRNVQAQRPIEIGILEEEGVCYSIFSYLEGEDAKKLLPTYSPKKQYEIGIEAGKDLAKMHTYEAPNDTLPWYERAMKKHQKYVEAYKTCGIKIKNDDKIIKFIDENEMYLQNRPNQFQHDDFHLENIIVRDGKYVGVVDFNGYDWGDPLHDFVKIALFARDISIPYSIGQIEGYFNGRIPEEFWKLYAVYVGMTVFSSVVWTLRAAPHMLDDTLERLTVVLEDHKDFELLKPIWFQPEKIDIKK", "soluble on expression in E. coli": "not soluble"}
{"sequence": "MKSKFMIHQIFSNYCSKNTRLHTLLYKTFVRPILEYGTEVSSPLKKQDIKAIESVQNSFTRKLYSRQKGKYIRTDDPDYKSAIQRNELFNLSTLEARRKAIDKVFLSKMLVNKVDIDTDQFFKIDKNSKTRTKTKFIWGKCKTKLRRHFFTNRVLSSIKISAMNLILAPHVLCMFNTFTHYSSP", "soluble on expression in E. coli": "not soluble"}
{"sequence": "MGNAAAYQRYRRPDCATEIDFSTENHSGREKIMSESLSWMQTGDTLALSGELDQDVLLPLWEMREEAVKGITCIDLSRVSRVDTGGLALLLHLIDLAKKQGNNVTLQGVNDKVYTLAKLYNLPADVLPR", "soluble on expression in E. coli": "not soluble"}
{"sequence": "MYTLREPYKGYEVKVTLLPIEDIVIPPIQRDLSETLIKKLMLSIEKVGFVDPILVVEGEEGKYEVINGQHRLKAAELLGIREIPAIILPQETKDYIISLNVEKAPNLKDKAHQAYEIFMKYLKENPEMEEVELENMVEEPYFLTVGFITDRFGEKRFPAYAFEKVLKKVDEFLGLPLEEAERERENRANVLRDVREVMEEKYQELGLTNALHKEAIISKAFQSVYGKRVRKVDDDFYTVFEKIKEAIPRVSFTEEELESF", "soluble on expression in E. coli": "soluble"}
{"sequence": "MSLYMTIGRIFDLSVGKYPNKEALVEPEKNIRWTYKQWDEQINKTAHALLEEGVRKGDTVSVYLYNCHEFVNVYLACAKIGAIFNPINFRLKAKEVSYILQDASSKVVVFEKAVESTVAIIERDFPNTSFWSIENDKPSYASSYHEKVNEASSEKVNIEIDEMDYCSMLYTSGTTGHPKGVLHRHREMAEHSMICTYFLKYNRDSVGLVVAPLYHCGELNAGIIPRIQVGGKNVILHHFDTETVLHTIQEEKITTFFAAPTMWNMLLQKDLAQYDLTSMKIGIYGGAAMAPALVKECKERLYIDLVQIYGMTEMGPVVAFLVEEDQITKAGSAGTPCFSHEVRIVKPNEDAPAEPDDVLPPYEVGEIILRGPTMMAGYHNREEANKKSMYKGWYHSGDLGYFDKDGYLFVADRVDDMVISGGVNIYPREIEDFLHSHPGILDVAVLGEPDELWGERVVAVIVKKDETITEADLETYCKESDELADYKRPRHYLFVDELPRNASGKLQKFVLRESLKGAKEGHHHHHH", "soluble on expression in E. coli": "soluble"}
{"sequence": "MEQINEKNFNFYNRIGLDTFQALAKDGGFSTFVDLEIAYRYIQPTENIAEIGAGYGRCIDFLLAKKHQGKIIAVEQSPKLCEHLRAVYSSTIKIVEGDIYKVSFDHQIDAALWMWSGMIDFSVEEQAAVIKHIHELLTQKGKLFIDIPRIGIKTIADHIDQQRIKLTTDFGEIECYIPLSSEVKEYADAAGFTRVDEINYETATDKKRTMYILMK", "soluble on expression in E. coli": "not soluble"}
{"sequence": "MEVLVIAPRICVNVIRTLPIGLPVGVEKRLRAFDPDVIHLASPYAFAARAAFIAQKMAVPCVAVYQTDVAAYQQHYHLTWLKNLEHHHHHH", "soluble on expression in E. coli": "not soluble"}
{"sequence": "MGSDKIHHHHHHMETPTQDMDVRWLYTQSQLKLREILPTNKTFDVIQISELVDPTDFISPNSVVLSVGIAFAETPDGLRDWAHRLADAGVIAIGFGSGLTFPQVPQALIDASLHLGLGLFEVPREIPFISITSSVRDEQTRRAGRLQQELLLEQERLNSIAISGGIEALCRAAADYLGGAVAIVDSDGRVACSITTDDLDALPQAVSRLNGSSQALTDATNFGFIHRMTRYGDRHHVLSVLMPTRPSEQHRALIRHCAGLADILLQRPEAMRDREIEVRSLAMSLLLGRSDDLATIHRVFADITDASGNIRPILITGNTPQSVRKALSSVATALYKQERALAHLRLAESTELLFLRGSRSVHNIVQLFGTAASGVRLCIGLPTRAENIDKKLIRELTATAKTLQLGTHAEPRDGTLLWLQNPELRKILKIRSRDTYDRLLDHDRTNNTELAPTLVSFTQHSGHIGDTAKELGIHRHTVRTRMIRIEEICEIDLNDPLTRAELLLVIATKEGDVEKQ", "soluble on expression in E. coli": "not soluble"}
{"sequence": "MSLNARSYLEQQLTGQNANAANALALAITQSQADKAMAETLINATFDQGYFHHIRWQGADGKVRVDRVNEAVFPAAPGWFRALLPLSPQPGSALVTAGWMQAGEIRVEAALGYAYESLWRGALQTMLWLLGTGLLAGLLGSIDIFKLRRDLQRVVNQARAISEHRFQRMTEPKVPELARVVGAMNQMVERLQSFLGEQSEEVEQLRRERHTDPVTGLPNREALEQAVSSTLAEEDDVRGCLLLLRLAGLAELNQRLGGERADALLVRLAADLEDLAARRKGWMAARLRGADFAVFCPELDMDGGRQLAETLCEQLALYRQMGLSDRDGIGHIGVCGIVQGDGLASLLARASQALAEAEAAGDNQWRVDDGAGPDVGSEWDWRELIEAACREHSLRLRWFPVRDAARGILWQEGMLYRPPMDGLPAINAMRLVSHSLRLGLSHLADLEALRLALADAPGAALAVNLSPASLAARGFQWQVTEMLAGSRATVSFEFDEAGLDEHWAAFLAFGEAVKGAGHRLAVEIRGHRLELVARLNQAGIDYLVLDGALTRGIHRDEGRKVLVKGVQRMTSLMGARLIAKGVASEEDARLLLELRVDGLTGPAEGHHHHHH", "soluble on expression in E. coli": "not soluble"}
{"sequence": "SSEASRDDYKIQSFDAQTQQLLKTALKDPGAVDLERVANVIVDHSLQDCVFSKEAGRMCYAIIQAESKQAGQSVFRRGLLNRLQKEYDAREQLRACSLQGWVCYVTFICNIFDYLRVNNMPMMALVNPVYDCLFQLAQPESLSREEEVDCLVLQLHRVGEQLEKMNGQRMDELFILIRDGFLLPTDLSSLARLLLLEMIEFRAAGWKTTPAAHKYYYSEVSD", "soluble on expression in E. coli": "soluble"}
{"sequence": "MGSDKIHHHHHHMSGETLYQQLVNEWMELIRNGTVRPGERLPSVRKACAMHKVSPSTILQTYRMLEDRGLIEARPQSGFYVKSAASLPLPRMRRQSAAHHTGEVVDQIEAVMGVQSQADFIDLALASPRGSDFYPTTRFKHIMGRLLRQHPELTTDYPFPPGSERLRRQIAQRAVNWGCVLAADELVISNGCTEALQLALRAVCKPGDTVGVESPTYFALLPMLKDLGLAVIEIPTHPTSGLALDALELLLSEKRLNAVVAMPTVHNPLGSTMPPEAKRRLAQLVNDYQVPLIEDVPHAELFYGASTPDAVKAYDRDGWVLLCSSYSKTLAPGFRIGWIAPGRFLSEVRRLKFSSSLGQPALLEETLAEYLESGGYDHHLRLLRRHFISQMEKLRGAVAQHFPDGTRATLPSGGCLLWVELPSHADTMQLFRAALAERITVVPGAMYSAKGRYRNCLRLSCCYPWNEAYQRALIRVGELAGELAEGH", "soluble on expression in E. coli": "not soluble"}
{"sequence": "MNKKILVVDDEESIVTLLQYNLERSGYDVITASDGEEALKKAETEKPDLIVLDVMLPKLDGIEVCKQLRQQKLMFPILMLTAKDEEFDKVLGLELGADDYMTKPFSPREVNARVKAILRRSEIRAPSSEMKNDEMEGQIVIGDLKILPDHYEAYFKESQLELTPKEFELLLYLGRHKGRVLTRDLLLSAVWNYDFAGDTRIVDVHISHLRDKIENNTKKPIYIKTIRGLGYKLEEPKMNE", "soluble on expression in E. coli": "soluble"}
{"sequence": "MALWVDKYRPKDLLGKDGVDYHIEQANHLKFLSADCMPHLLFCGPSGAGKKTRIKCLLRELYGVGVEKTQLIMKSFTSPSNKKLEIQTVSSNYHIEMTPSDVGIYDRVVVQDLVKEMAQTSQIESTSQRSFKVVVLCEADSLTRDAQHGLRRTMEKYANNCKIVLSCESLSRIIEPLQSRCIIINVPAPTDEDVTKVLRKVIERESFLLPENVLQKIVEKSEGNLRRAILMTEALRMENESGVAESVVIPVPEWEIYIQETARLILQKQSSDMLLKVRERLYELLSRCIPPTVIFKKLLEHLLPKCPPQIAREVVSEAAKFEHRLVLGQKAIFHLEGFVAAFMDIYLTNASKPK", "soluble on expression in E. coli": "not soluble"}
{"sequence": "MGSDKIHHHHHHMTEGWDALDAELEQWAAAGLRLPLWWRDDDAVTPTDALTRLEAMATRLDLPVHLAVIPKAAEDALAQHVSQSSHLIPVVHGWAHVNHANPDKKTCEFPSTRPVDEALTDAEQGVERLKHLFGARLQPMFVPPWNRISPAMLPWLAGLGFAAISTYGPRKRTQAASGLVQINTHIDPIDWKGGRGLMPEAQILQKLVANLQARRSGQQDNAEPLGLLTHHLVHTDEVWEFCDTLLRRLLEGPAHPWRFNERIN", "soluble on expression in E. coli": "not soluble"}
{"sequence": "MSLETAGQIIGGETAAVLIRQKAGEPIELGDLLVAEGEGYTILQVKDLRYSSQIPQGMRELASGFNLEGYGREVELLEPELRNYIIAEARPILHVRDGQPMIPKRLPRFFREVRRIREGDLDFLERPGNPVFLGNVRSGSKVLDTPVYVDAVDAITHHILIPATTGRGKSNLVKVMLWSLAEMDRVGILVLDPHDEYYGRNEAGLGRHPSDNVVYYSPDAPVGGNTLTINLRSLRPEHFEGIIPFTQAQEQAIARYYNEYGDGWILKIVEGEELPGVQPVTLNVLRRIFDVILGVHLDDGKIKSRGGVFRERGGESTIKDIAASLEDGKNRCGGHLKAHGRGEGHHHHHH", "soluble on expression in E. coli": "not soluble"}
{"sequence": "MELRDRIDFLCKTILAIKTAGRLVLGIDGLSRSGKTTLANQLSQTLREQGISVCVFHMDDHIVERAKRYHTGNEEWFEYYYLQWDVEWLTHQLFRQLKASHQLTLPFYDHETDTHSKRTVYLSDSDMIMIEGVFLQRKEWRPFFDFVVYLDCPREIRFARENDQVKQNIQKFINRYWKAEDYYLETEEPIKRADVVFDMTS", "soluble on expression in E. coli": "soluble"}
{"sequence": "MSLQPILQLLEKDEQREALHYFIEKLPQLKEATESMEEKITFIQHVMNDKQTLESLFAEWEAKAAPFRLTSEHFEAIATLIQLLPTLVQWLQKAEEFVSFVTSVMNDRESMAYLTKGIKDIVPIGKGLDILKETNERFACERDSTTVSLLRIYRLLKHPIVQDGVKYIETLLDVASKHK", "soluble on expression in E. coli": "not soluble"}
{"sequence": "MSGSGMTPMLQATPEQARTLGAEEPIRPGQDRLAHAPADHPELPQPKIGILLANLGTPDNYDYWSMRRYLNEFLSDKRVIDYPAWKWQPLLQILILSKRPFSSGANYKLIWNHDKGESPLMTITKDQTAAIAAEIRSLYGNRVMVDFCMRYGNPSTESRVRAMVEAGCEKILFFPLYPHYAGATSATANDEFFRAMMKEKRQPAVRTVPEYYDNPLYIDALAQSVERAYAQLDHRPDVLVASYHGMPKRYLMAGDPYHCQCAKTSRLLRERLGWEKGAIDTTFQSVFGPEEWLKPYTVEHVAELARAGKKRIAVIAPAFSADCIETLEEINGEIREAFEEAGGEEFTYIPCLNDDEAHIRALVSVIEDNLAGWLARG", "soluble on expression in E. coli": "not soluble"}
{"sequence": "MVLFMLSESKKKATNWEQITKKHGSVQCVKGCCCYSLIISFMKPKEKKDFVLFCLSSVVTCCRPIQIPSRQEKKGKFLCFFLLVLIR", "soluble on expression in E. coli": "soluble"}
